Measured values as given in patent publication US20110294219A1.

Tests used:
Assay in all cases: cell-based or functional assay
[1] = target: C-terminal HA-tagged feline APOBEC3 (feline)
feline APOBEC3 (feline) = target: feline APOBEC3 (feline)
[2] = target: different primate APOBEC3 proteins (e.g. from chimpanzee, African green monkey, human)

Chain of C-terminal HA-tagged feline APOBEC3 (feline) (Q4VDN5 whole entry): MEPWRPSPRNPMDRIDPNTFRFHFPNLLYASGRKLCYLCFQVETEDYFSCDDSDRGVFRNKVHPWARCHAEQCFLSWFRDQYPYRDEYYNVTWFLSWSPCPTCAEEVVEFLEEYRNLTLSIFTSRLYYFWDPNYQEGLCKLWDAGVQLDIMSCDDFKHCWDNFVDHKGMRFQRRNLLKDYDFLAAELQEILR

“FFV Bet truncated after amino acid 116 (mutant pFeFV-BBtr)” was tested, and the G→A exchanges per 100 nucleotides in FFV genomes with fe3 coexpressed (G→A exchanges per 100 nucleotides) [1] was 1.05.

“feline foamy virus (FFV) Bet protein (from UniProt Q8NFT8)” was tested, and the G→A exchanges per 100 nucleotides in FFV genomes with fe3 coexpressed (G→A exchanges per 100 nucleotides) [1] was 0.05 and the reduction of FFV titer (FeFAB reporter cells) on cotransfection of pfe3 (feline APOBEC3 (feline)) was under 10 fold.

B1: human foamy virus (HFV) Bet protein, P89873 1-482 (protein)
chain: MDSYEKEESVASTSGIQDLQTLSELVGPENAGEGELTIAEEPEENPRRPRRYTKREVKCVSYHAYKEIEDKHPQHIKLQDWIPTPEEMIAQKVQNQDLGTILSFDVTCLKSITSLGRNDPGDDPSIMSHVLPVVTPWPMSQDHYAPTLFGILDRYYQGYLKSPATYQTWKFTCQVDPSGKRFMETQFWVPPLGQVNIQFYKNYQILTCCQAVDPFANIFHGTDEEMFDIDSGPDVWCSPSLCFKVIYEGAMGQKQEQKTWLCRLGHGHRMGACDYRKVDLYAMRQGKENPYGDRGDAALQYAYQVKRGCKAGCLASPVLNYKALQFHRTIMADFTNPRIGEGHLAHGYQAAMEAYGPQRGSNEERVWWNVTRNQGKQGGEYYREGGEEPHYPNTPAPHRRTWDERHKVLKLSSFATPSDIQRWTTKALPYGWKVVTESGNDYTSRRKIRTLTEMTQDEIRKRWESGYCDPFIDSGSDSDGPF
B1 was tested, and the Bet-mediated rescue of marker gene transduction in the presence of different APOBEC3 molecules [2] was under 100 fold.
